Measured values from patent publication US20220153832A1 (PIONYR IMMUNOTHERAPEUTICS, published 2022).
One block for each binder: values may come before it.

Assays:
[1] = biological target: T1, Mouse MARCO, full length, on cells (mouse, UniProt Q60754 1-518); test: flow cytometry, 293T (muMARCO)
T1 construct: whole, on cells; the cell type is named under assay; also called muMARCO; MuMARCO
T1 sequence (looked up): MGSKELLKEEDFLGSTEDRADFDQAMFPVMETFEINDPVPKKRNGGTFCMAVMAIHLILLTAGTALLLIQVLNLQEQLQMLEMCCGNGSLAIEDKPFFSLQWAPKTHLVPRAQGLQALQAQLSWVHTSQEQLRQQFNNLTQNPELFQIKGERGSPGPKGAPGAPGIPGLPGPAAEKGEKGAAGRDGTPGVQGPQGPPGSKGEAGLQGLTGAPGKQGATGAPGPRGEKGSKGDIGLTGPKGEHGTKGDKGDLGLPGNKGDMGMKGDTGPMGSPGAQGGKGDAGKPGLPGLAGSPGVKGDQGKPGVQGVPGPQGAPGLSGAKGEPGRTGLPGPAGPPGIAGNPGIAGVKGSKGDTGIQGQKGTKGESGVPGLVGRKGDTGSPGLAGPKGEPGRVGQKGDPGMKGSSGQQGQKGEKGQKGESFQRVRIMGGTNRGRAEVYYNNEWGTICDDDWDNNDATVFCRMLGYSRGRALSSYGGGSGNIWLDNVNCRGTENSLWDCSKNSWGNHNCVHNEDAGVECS

[2] = biological target: T1, Mouse MARCO, full length, on cells; test: competition with AF488 E. coli binding to muMARCO 293T cells, flow cytometry
[3] = biological target: T2, N-terminally polyhistidine tagged human MARCO ECD (147-520), recombinant (human, UniProt Q9UEW3 147-520); test: ELISA on hMARCO ECD with 2 mM Ca2+, A450-A620
T2 construct: also called PI-RG-3000; recombinant human MARCO; not shown: N-terminal polyhistidine tag
T2 sequence: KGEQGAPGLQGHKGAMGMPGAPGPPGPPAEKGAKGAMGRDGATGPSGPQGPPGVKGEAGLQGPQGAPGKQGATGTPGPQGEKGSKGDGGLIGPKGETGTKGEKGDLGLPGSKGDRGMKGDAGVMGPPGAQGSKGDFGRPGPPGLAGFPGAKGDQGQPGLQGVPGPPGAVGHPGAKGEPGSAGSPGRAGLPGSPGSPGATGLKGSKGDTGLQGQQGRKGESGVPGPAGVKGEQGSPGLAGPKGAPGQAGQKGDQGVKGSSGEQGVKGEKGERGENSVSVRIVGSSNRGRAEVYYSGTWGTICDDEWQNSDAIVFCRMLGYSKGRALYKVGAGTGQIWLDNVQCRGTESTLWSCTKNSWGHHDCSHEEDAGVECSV

[4] = biological target: T2, N-terminally polyhistidine tagged human …; test: Biacore; sample oxidized with 1.5% H2O2 (24 hr, RT)
Method: (PBS)+1 mM AAPH for 6 h, 0.5 and 1.5% H₂O₂ in PBS for 24 h, which was compared to a previous experiment at 40° C. (PBS)+1 mM AAPH for 6 h. Post treatment the samples were analyzed by LC-MS/MS which identified the % modification on isolated peptides derived from the antibody after trypsin digest.
Binding of the stressed samples to recombinant human MARCO was assessed by Biacore.

[5] = biological target: T2, N-terminally polyhistidine tagged human …; test: ELISA readout A450-A620; the panel names no target, the legend says MARCO expressing cells; stable transfection pools
[6] = biological target: T3, recombinant cynomolgus MARCO protein (cynomolgus, UniProt A0A2K5X0Z2 65-519); test: Biacore (SPR), recombinant cyno MARCO
T3 construct: Construct not described; also called cyno MARCO; cynoMARCO
T3 sequence: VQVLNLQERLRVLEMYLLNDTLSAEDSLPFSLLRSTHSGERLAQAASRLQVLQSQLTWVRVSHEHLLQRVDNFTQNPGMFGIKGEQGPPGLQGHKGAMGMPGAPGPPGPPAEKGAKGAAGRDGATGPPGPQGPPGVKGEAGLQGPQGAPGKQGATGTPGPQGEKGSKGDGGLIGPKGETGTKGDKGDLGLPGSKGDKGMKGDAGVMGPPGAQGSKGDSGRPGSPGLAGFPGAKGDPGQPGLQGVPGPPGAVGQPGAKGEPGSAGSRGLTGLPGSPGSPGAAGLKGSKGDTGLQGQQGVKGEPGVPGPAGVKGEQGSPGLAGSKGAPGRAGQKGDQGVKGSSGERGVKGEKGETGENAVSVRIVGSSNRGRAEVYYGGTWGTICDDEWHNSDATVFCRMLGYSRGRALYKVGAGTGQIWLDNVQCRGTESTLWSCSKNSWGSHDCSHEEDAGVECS

[7] = biological target: T2, N-terminally polyhistidine tagged human …; test: Biacore (SPR), recombinant human MARCO
How it was run: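 On a CM4 chip, anti-mouse Fc mAb was amine-coupled to a 4500 RU target and used to capture the antibodies. Their binding kinetics and affinity for N-terminally His-tagged human MARCO extracellular domain (147-520) were then measured by multi-cycle surface plasmon resonance on a Biacore T200. This was done at 25° C in 10 mM HEPES pH 7.4, 150 mM NaCl, 3 mM EDTA, 0.05% surfactant P20, with 0.625–10 nM injections, 90 s association and 600 s dissociation, and fitting in BIAevaluation 3.1.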

[8] = biological target: T4, chimera Mouse MARCO CLD-human MARCO SRCR, on cells; test: flow cytometry, cells overexpressing HuSRCR-mouse CLD chimera
T4 chain: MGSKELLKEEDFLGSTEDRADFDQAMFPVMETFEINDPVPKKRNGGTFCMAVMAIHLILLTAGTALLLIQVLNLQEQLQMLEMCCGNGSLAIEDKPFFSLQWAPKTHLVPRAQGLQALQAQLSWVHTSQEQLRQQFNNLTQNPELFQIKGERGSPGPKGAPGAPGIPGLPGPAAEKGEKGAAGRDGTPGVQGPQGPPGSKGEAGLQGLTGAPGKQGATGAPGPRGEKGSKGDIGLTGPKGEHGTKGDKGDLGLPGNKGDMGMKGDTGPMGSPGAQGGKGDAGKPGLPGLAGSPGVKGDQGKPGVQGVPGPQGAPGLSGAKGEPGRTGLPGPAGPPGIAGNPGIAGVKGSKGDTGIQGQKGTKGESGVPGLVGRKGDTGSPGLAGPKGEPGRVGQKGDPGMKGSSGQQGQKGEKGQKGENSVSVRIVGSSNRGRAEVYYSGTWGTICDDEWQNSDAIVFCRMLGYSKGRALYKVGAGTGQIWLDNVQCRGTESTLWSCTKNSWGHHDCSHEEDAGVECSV

- EC50 [1]: 2.53 nM
- EC50 [2]: 0.85 nM
B1: PI-HX-3061 (antibody, rat IgG2a)
heavy: EVQLVESGGGLVQPGSSLKLSCVASKFTFSNYGMNWIRQAPKKGLEWIALIYYNSNNKYYADSVKGRFTISRDNSKNTLYLEMNSLRSEDTAMYYCAKSLTGGSDYFDSWGQGVMVTVSSAETTAPSVYPLAPGTALKSNSMVTLGCLVKGYFPEPVTVTWNSGALSSGVHTFPAVLQSGLYTLTSSVTVPSSTWPSQTVTCNVAHPASSTKVDKKIVPRNCGGDCKPCICTGSEVSSVFIFPPKPKDVLTITLTPKVTCVVVDISQDDPEVHFSWFVDDVEVHTAQTRPPEEQFNSTFRSVSELPILHQDWLNGRTFRCKVTSAAFPSPIEKTISKPEGRTQVPHVYTMSPTKEEMTQNEVSITCMVKGFYPPDIYVEWQMNGQPQENYKNTPPTMDTDGSYFLYSKLNVKKEKWQQGNTFTCSVLHEGLHNHHTEKSLSHSP
light: DVQMTQSPSYLAASPGESVSISCKASKSIGTFLAWYQEKPEKTNKLLIYSGSTLQSGTPSRFSGSGSGTDFTLTIRNLEPEDFAVYYCQQHDEYPFTFGSGTKLEIKRADAAPTVSIFPPSTEQLATGGASVVCLMNNFYPRDISVKWKIDGTERRDGVLDSVTDQDSKDSTYSMSSTLSLTKADYESHNLYTCEVVHKTSSSPVVKSFNRNEC
notes: Parental rat hybridoma, rat IgG2a; cross reactive with human and mouse MARCO

- EC50 (read off the curve) [3]: ~1 nM
- Kd [4]: 1.07 nM
- EC50 (read off the curve) [5]: ~0.2 nM
- Kd [6]: 1.65 nM
- Kd [7]: 0.51 nM
- koff [7]: 0.000294 s⁻¹
B2: PI-3015-AB (antibody, human IgG1, kappa)
heavy: not shown
light: DIQMTQSPSSLSASVGDRVTITCRASEGISNDLAWYQQKPGKAPKLLIYAASRLQSGVPSRFSGSGSGTDYTLTISSMQPEDFATYYCQQSYKYPLTFGQGTKLEIKRTVAAPSVFIFPPSDEQLKSGTASVVCLLNNFYPREAKVQWKVDNALQSGNSQESVTEQDSKDSTYSLSSTLTLSKADYEKHKVYACEVTHQGLSSPVTKSFNRGEC

- EC50 [8]: 0.25 nM
B3: PI-3010-AB (antibody, human IgG1, kappa)
heavy: not shown
light: DIQMTQSPASLSTSLGETVSIECLASEGISNDLAWYQQKSGKSPQLLIYAASRLQDGVPSRFSGSGSGTRYSLKISGMQPEDEADYFCQQSYKYPLTFGSGTKLEIKRTVAAPSVFIFPPSDEQLKSGTASVVCLLNNFYPREAKVQWKVDNALQSGNSQESVTEQDSKDSTYSLSSTLTLSKADYEKHKVYACEVTHQGLSSPVTKSFNRGEC
